Drawing on the supplement of paper PMC10567573, this text covers protein stability index for 72 sequences.

± gives the standard deviation.

The nature of the data set: protein stability index of a GFP-peptide fusion (GPS, HEK-293T) (PSI 1-6); higher = more stable.
[1] abbreviates: treatment: DMSO, c terminus: a fixed tail appended.
Where [2] appears, read: treatment: MLN4924 1 uM, 8 h, c terminus: a fixed tail appended.
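Also: 24-mer peptide tiles fused after GFP, lentivirally expressed, FACS-sorted into six equal bins by GFP/DsRed ratio, decoded by Illumina sequencing, PSI is the read-weighted mean bin number.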

Consider VSHVFMLLFNVKSPTDIQDSSIIR [RHOBTB3], for which the protein stability index runs as follows: under setting [1], 2.81 ± 0.56; under setting [2], 2.64 ± 0.48.
The like results for QQHRQGRSHHLEMVIQLLAIMCVS [PTGFR] were, in that order, 2.61 ± 0.51 and 2.12 ± 0.44.
The like results for KIKDARKGPLVPFPNQKSEAAEPP [KMT5A] were, in that order, 4.95 ± 0.22 and 5.11 ± 0.19.
On the same counts, the results for LPLMDLCRRSIRSALGRQRLQDIS [SPSB4] are 2.62 ± 0.12 and 2.53 ± 0.34.
On to PPPVESELALFQMSVLWLEHDRET [KLHL14], for which the protein stability index under setting [1] stood at 3.18 ± 0.085 and the protein stability index under setting [2] worked out at 3.25 ± 0.23.
On the same counts, the results for VNARQKQGIYEEYEDIRRENPVGT [PTPN9] are 4.83 ± 0.37 and 4.96 ± 0.29.
Consider LLGSSTACIVVLDRTSHRLHTANL [PPTC7], for which the protein stability index was 2.66 ± 0.39 under setting [1] and 2.46 ± 0.32 under setting [2].
The like results for TAKRINRTSLSSGATVRSFSINSR [CDC14A] were, in that order, 3.26 ± 0.41 and 3.6 ± 0.12.
On the same counts, the results for MPSKLFAGLVHVKQCIVAHPVNPP [CRYL1] are 2.37 ± 0.17 and 2.46 ± 0.35.
On the same counts, the results for GKVLQNKQAEICQLEEKLEIANED [CCDC89] are 5.26 ± 0.37 and 5.44 ± 0.25.
Take NLTIRAGALTGKENNMLQPETHIF [DMRTC1]: the protein stability index by setting is: under setting [1], 2.95 ± 0.21; under setting [2], 3.17 ± 0.39.
On the same counts, the results for HQRDGTLGALHTSSKPTALPSASS [SASS6] are 4.57 ± 0.25 and 4.55 ± 0.12.
On to IGIPLFFLELAVGQRIRRGSIGVW [SLC6A17], for which the protein stability index reads like this: under setting [1], 2.51 ± 0.34; under setting [2], 2.28 ± 0.23.
Turning to MRLPLPPAQVHSSLSAGEKPGFLA [RASAL3], the protein stability index runs as follows: under setting [1], 3.4 ± 0.085; under setting [2], 3.35 ± 0.14.
On the same counts, the results for VTLAAHFLGLGAPNCLSMGSRCLK [ZBED1] are 2.26 ± 0.37 and 2.19 ± 0.21.
The like results for AEKLCIYTDNSIRPEELLQMELLL [CCND1] were, in that order, 2.28 ± 0.078 and 2.09 ± 0.36.
Turning to VALPTEAEFQLVRDVVLCSLLNFL [TENT5C], the protein stability index is 2.14 ± 0.28 under setting [1] and 2.13 ± 0.37 under setting [2].
Turning to SKDWEEVVVESMEQDRIPEVHVPP [MIA2], the protein stability index under setting [1] is 5.09 ± 0.25 and the protein stability index under setting [2] amounted to 4.87 ± 0.26.
TPIQLQELLALETALGGQCVDRQE [TCAP]: the protein stability index runs as follows: under setting [1], 4.52 ± 0.11; under setting [2], 4.47 ± 0.26.
Take PVANSGTKPKTTAIQGISEKEKAE [DLC1]: the protein stability index was found to be 5.51 ± 0.28 under setting [1] and 5.68 ± 0.28 under setting [2].
On the same counts, the results for EFQMFPKSRLSSVSVTYCSVSQDF [ETS2] are 2.23 ± 0.25 and 2.15 ± 0.21.
On the same counts, the results for ESKVREATNDDPWGPSGQLMGEIA [CLINT1] are 4.7 ± 0.12 and 4.78 ± 0.096.
On the same counts, the results for RPSEIKDYSPYFKTIEDLRNKIIA [KRT16] are 2.28 ± 0.18 and 2.41 ± 0.22.
With PYTELRKQPLRKYVTPSDFDQLKQ [EFHC1], the protein stability index runs as follows: under setting [1], 3.57 ± 0.2; under setting [2], 3.51 ± 0.11.
Consider LSGGLGAGSCRLGSAGGLGSTLGG [KRT17], for which the protein stability index under setting [1] came out at 2.47 ± 0.23 and the protein stability index under setting [2] came out at 2.37 ± 0.28.
Regarding TNCWLIRELNLPFGGMKSSGIGRE [ALDH8A1], the protein stability index is, setting by setting: under setting [1], 2.31 ± 0.41; under setting [2], 2.29 ± 0.33.
The like results for GRGAQGENERVRGLETGDWGGAPK [ZSWIM9] were, in that order, 5 ± 0.21 and 4.98 ± 0.24.
On the same counts, the results for FVSFFNKWDAENAIQQMGGQWLGG [TIA1] are 2.69 ± 0.78 and 2.1 ± 0.59.
Consider ELVVRFFACPSKTDFFKNIMNFID [KCNA1], for which the protein stability index came out at 2.32 ± 0.58 under setting [1] and 2.33 ± 0.52 under setting [2].
Regarding GVRVSVPCPSTTCCRACSVSFSTG [BET1L], the protein stability index under setting [1] was 2.49 ± 0.38 and the protein stability index under setting [2] was found to be 2.35 ± 0.31.
On the same counts, the results for AQEVRPRRWKLQVLDLRKNSHQDF [PRAME] are 2.64 ± 0.37 and 2.96 ± 0.31.
On the same counts, the results for LDQAPKARKYFERLPGGGWTLRRT [DYRK1B] are 3.48 ± 0.27 and 3.33 ± 0.33.
On to AGSRQALSFEVPPCNYDPEKWIQ, for which the protein stability index (treatment: DMSO, c terminus: native) was determined as 2.69 ± 0.59 and the protein stability index (treatment: MLN4924 1 uM, 8 h, c terminus: native) was found to be 3.35 ± 0.51.
Take HTHPSACQGQRLFEKLLQLTSQNI [PLD5]: the protein stability index under setting [1] turned out to be 2.21 ± 0.21 and the protein stability index under setting [2] was 1.84 ± 0.37.
The like results for NIYETGDVCISILHPPVDDPQSGE [CDC34] were, in that order, 4.52 ± 0.11 and 4.51 ± 0.29.
On the same counts, the results for GQSVTAVGRIIAPLLSGVAQEVSP [MFSD9] are 3.39 ± 0.19 and 3.44 ± 0.19.
The like results for CKAFFKRSIQGHNDYICPATNQCT [ESR2] were, in that order, 2.15 ± 0.4 and 2.45 ± 0.51.
With FNAGIQQAFQLPKLGALLSRCRKL [ZBED1], the protein stability index reads like this: under setting [1], 2.63 ± 0.31; under setting [2], 2.63 ± 0.29.
On the same counts, the results for PVRKLYDDCSSTIVEDPQTKCEYM [ESRRG] are 4.47 ± 0.21 and 4.64 ± 0.19.
The like results for YTSPDKLKDIFMFITRQLKGLEDT [PDS5B] were, in that order, 3.62 ± 0.19 and 3.84 ± 0.3.
The like results for CYEHFAELDIPQSVQQNGSIYIHV [CLPTM1] were, in that order, 2.75 ± 0.48 and 2.98 ± 0.45.
For WTLYKILDSCKQLTLAQGAGEEDP [SMG5], the protein stability index by setting is: under setting [1], 2.32 ± 0.18; under setting [2], 2.56 ± 0.28.
Consider RALEEVEMKLQKNFLTQRENTIAG [C10orf62], for which the protein stability index came out at 3.48 ± 0.081 under setting [1] and 3.73 ± 0.33 under setting [2].
On the same counts, the results for PCLDQTRVKLTKRSGHTQTDYINA [PTPN9] are 3.99 ± 0.59 and 3.91 ± 0.1.
On the same counts, the results for EKPRVPAFACQVAGCCQVFDALDD [ZNF511] are 3.94 ± 0.22 and 3.99 ± 0.092.
NAYKDLAWKHGNIHLSAPCIYSEV [PCMTD1] gave a protein stability index under setting [1] of 2.31 ± 0.17 and a protein stability index under setting [2] of 2.15 ± 0.31.
Take DDHLQQPLQNQKILKRTGQRYEHG [ZNF649]: the protein stability index stood at 4.84 ± 0.085 under setting [1] and 4.97 ± 0.23 under setting [2].
The like results for PPALQNNLLSPLLTGTESPFDLEQ [NFE2L1] were, in that order, 4.97 ± 0.29 and 5.04 ± 0.1.
In the case of DTGVAFELRDSSAYHVPNRTLASG [DNAAF3], the protein stability index reads like this: under setting [1], 3.87 ± 0.18; under setting [2], 3.94 ± 0.054.
With RCLHMDQLQDFNIPQAGGWGPWGP [ADAMTS4], the protein stability index by setting is: under setting [1], 2.24 ± 0.35; under setting [2], 2.24 ± 0.75.
On to DVFERDWYSPYAKTLQPTKQPNCS [PLD5], for which the protein stability index was found to be 3.49 ± 0.54 under setting [1] and 3.24 ± 0.15 under setting [2].
QRFRQFQYREAAGPHEAFNKLWEL [ZNF449] displayed a protein stability index under setting [1] of 2.17 ± 0.18 and a protein stability index under setting [2] of 2.33 ± 0.19.
The like results for SAVTSVRILQDEQYLMASDMAGKI [DCAF4] were, in that order, 3.33 ± 0.18 and 3.29 ± 0.27.
The like results for QAFQLPKLGALLSRCRKLVEYFQQ [ZBED1] were, in that order, 2.52 ± 0.5 and 2.43 ± 0.29.
For ATRVAPERLFGSAANVVSAKRNRL [ZBED1], the protein stability index runs as follows: under setting [1], 3.83 ± 0.28; under setting [2], 3.82 ± 0.14.
On the same counts, the results for QHYTETALDEIKLLKCVRESDPSD [SRPK2] are 4.82 ± 0.22 and 4.92 ± 0.16.
On the same counts, the results for EITTLRQVLSAKERHLVEIKQKLG [TPD52L1] are 2.97 ± 0.57 and 3.16 ± 0.12.
On the same counts, the results for IRQLATSGRFIVIIPRTVIDGLDL [SMG5] are 2.88 ± 0.61 and 2.68 ± 0.7.
With YSPAVMNYSIPSNVTNLEGGPGRQ [ESR2], the protein stability index came out at 3.8 ± 0.4 under setting [1] and 3.75 ± 0.4 under setting [2].
In the case of EAEALAGTGLVLDEQLNEFHCLWD [HDAC6], the protein stability index was found to be 4.29 ± 0.061 under setting [1] and 4.15 ± 0.45 under setting [2].
On the same counts, the results for TQAHIQECKHPSVFQHGDNSFRLL [MCOLN1] are 2.78 ± 0.11 and 2.92 ± 0.16.
Turning to TSSSSSSSRQTRPILKEQSSSSFS [KRT16], the protein stability index is, setting by setting: under setting [1], 4.66 ± 0.14; under setting [2], 4.61 ± 0.11.
On the same counts, the results for SCKLVRDKITGQSLGYGFVNYSDP [ELAVL3] are 2.4 ± 0.19 and 2.5 ± 0.37.
The like results for HVKFRSLSMVSECLFSLINGDDMF [MCOLN1] were, in that order, 2.84 ± 0.45 and 2.61 ± 0.45.
The like results for LYWRDIKQTGIVFGSFLLLLFSLT [RTN1] were, in that order, 2.52 ± 0.22 and 2.35 ± 0.23.
Take IETLRLAKNYIWALSEILRIGKRP [NEUROD6]: the protein stability index came to 3.08 ± 0.73 under setting [1] and 2.65 ± 0.57 under setting [2].
On the same counts, the results for IPISLETQAHIQECKHPSVFQHGD [MCOLN1] are 4.26 ± 0.23 and 4.21 ± 0.14.
On the same counts, the results for LPMWSNQTWNNSTWSNQTQNIQSW [NANOGP8] are 2.45 ± 0.38 and 2.56 ± 0.27.
On the same counts, the results for LLCNAITGITLLRVKFKSQQHRQG [PTGFR] are 2.38 ± 0.46 and 2.21 ± 0.77.
With LLARLRELEQQIWKERDEYITKVS [TRIM15], the protein stability index was determined as 1.98 ± 0.36 under setting [1] and 1.96 ± 0.56 under setting [2].
With NETADLGLDIGAQGEPLGYRQDDP [CTNNB1], the protein stability index under setting [1] was found to be 5.41 ± 0.2 and the protein stability index under setting [2] is 5.46 ± 0.23.
On the same counts, the results for QLSRELSTLRNLFKQLPEPLLASS [CEBPB] are 2.28 ± 0.1 and 2.37 ± 0.29.
